The values below come from PMC3014985.

Like-named read-outs stand apart in the source and are kept apart here.

Common to all, as to experiment: SEC
(In general: In gel filtration, larger molecules generally elute earlier.)

The target in assay [1] is RVFV NP (Rift Valley fever virus nucleoprotein after removal of the TRX-6His tag) (Rift Valley fever virus (strain Smithburn)) (UniProt P21700).
In assay [2] the target is 6His-TOSV NP (Toscana virus nucleoprotein with N-terminal hexahistidine tag), refolded (Toscana virus (strain AR2005)) (UniProt P21701).
Assay [3] has as its target TOSV NP (Toscana virus nucleoprotein after removal of the TRX-6His tag) (Toscana virus (strain AR2005)) (UniProt P21701).
The target is the same in assay [4]. This is another data set of the same source.

Take “RVFV NP (Rift Valley fever virus nucleoprotein after removal of the TRX-6His tag) (from UniProt P21700 1-245) (natural protein)”: the stoichiometry N (commonly the number of molecules, sites or subunits per partner or assembly) in assay [1] came out at 3.
In assay [2], “6His-TOSV NP (Toscana virus nucleoprotein with N-terminal hexahistidine tag), refolded (from UniProt P21701 1-253) (natural protein)” returned a stoichiometry N of 3.
Turning to “TOSV NP (Toscana virus nucleoprotein after removal of the TRX-6His tag) (from UniProt P21701 1-253) (natural protein)”, the figures for the stoichiometry N in assay [3] and in assay [4] were 6 and 3, respectively.
